This passage reports IC50, neutralization of SARS COV-1 by the soluble scFv results from patent US20240254203A1.

In this experiment the target is SARS COV-1 spike protein (SARS COV-1) (UniProt P59594). In words: cell-based or functional assay.

soluble 80R scFv, sequence (VH): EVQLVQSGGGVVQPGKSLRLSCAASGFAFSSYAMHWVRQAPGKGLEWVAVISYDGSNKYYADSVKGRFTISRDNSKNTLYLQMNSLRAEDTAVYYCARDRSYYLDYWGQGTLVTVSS
soluble 80R scFv, sequence (VL): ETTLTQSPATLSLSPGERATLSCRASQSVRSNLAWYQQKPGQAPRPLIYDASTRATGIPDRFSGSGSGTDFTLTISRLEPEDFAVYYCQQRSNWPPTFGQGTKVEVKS

Regarding soluble 80R scFv, the IC50, neutralization of SARS COV-1 by the soluble scFv was found to be 7.43 nM.
